Reference: patent US20250347705

Target: human chorionic gonadotropin (hCG), alpha/beta heterodimer (Homo sapiens) (UniProt P01215+P0DN86)
Conditions: hCG magnetic beads with qPCR, artificial urine; round 6 pool 2.54%, round 7 20.88%, round 8 22.85%

human chorionic gonadotropin (hCG), alpha/beta heterodimer (Homo sapiens), sequence (P01215 25-116, chain 1 of 2, other chains not shown): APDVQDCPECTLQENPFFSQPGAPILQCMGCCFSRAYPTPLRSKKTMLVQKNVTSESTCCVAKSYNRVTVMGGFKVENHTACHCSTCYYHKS

TCGCACATTCCGCTTCTACCNNNNNNNNNNNNNNNNNNNNNNNNNNNNNNNNNNNNNNNNCGTAAGTCCGTGTGTGCGAA [SELEX round 9 pool]
binding signal (% of input DNA bound): 77.4
